{"source": "the supplement of paper PMC9732359", "note": "± gives the uncertainty stated by the source."}
{"assay": "protein stability index of a GFP-peptide fusion (yeast GPS) (PSI 1-4); higher = more stable; sorted into four equal gates, so the index is relative within each strain", "conditions": "san1∆", "method_in_brief": "(§1)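 Peptides tiling yeast proteins in 17-residue segments were fused downstream of GFP, with Cherry expressed from the same plasmid. As a pooled library in yeast, mid-log cultures grown in leucine-free medium were sorted into four equal gates by GFP/Cherry fluorescence ratio. Gate plasmids were PCR-amplified and Illumina-sequenced, and barcodes linked reads to strains. Each peptide received a protein stability index equal to the sum of each gate's read frequency times its gate number.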"}
{"sequence": "YITAKNNVVINFKDMSH [PRP8]", "protein stability index": "2.42 ± 0.063"}
{"sequence": "YKAKIKELENNLERLRS [YIL149C/MLP2]", "protein stability index": "2.64 ± 0.078"}
{"assay": "protein stability index of a GFP-peptide fusion (yeast GPS) (PSI 1-4); higher = more stable; sorted into four equal gates, so the index is relative within each strain", "conditions": "ubr1∆", "method_in_brief": "as §1"}
{"sequence": "VLVYDDKLEKVTHDCYR [RPC34]", "protein stability index": "2.96 ± 0.062"}
{"sequence": "VMNTKLLQEGGSLSGNS [ESC2]", "protein stability index": "3.07 ± 0.19"}
{"sequence": "VNADDDDFMHSETREKE [RPB4]", "protein stability index": "1.99 ± 0.062"}
{"sequence": "VNADTVGKTVKQLIMES [NSL1]", "protein stability index": "3.33 ± 0.05"}
{"sequence": "VNDRSDISDSEGGLFEC [PCI8]", "protein stability index": "3.08 ± 0.11"}
{"sequence": "VNDTVKIDLASGKITDF [RPS4A]", "protein stability index": "2.71 ± 0.15"}
{"sequence": "VNGFLNLGYCNDKLIVD [RPN1]", "protein stability index": "2.49 ± 0.079"}
{"sequence": "VNITKFSKFERSKSSHK [SKI6]", "protein stability index": "2.62 ± 0.048"}
{"sequence": "VNTEKKTIEVTAEINCF [RPN3]", "protein stability index": "1.62 ± 0.16"}
{"sequence": "VNTTRRFQYSDDEPAEK [YMR129W/POM152]", "protein stability index": "2.95 ± 0.19"}
{"sequence": "VNVLLQSYFSQLKFEGF [BRR2]", "protein stability index": "1.48 ± 0.033"}
{"sequence": "VPAVVDDPLENMFGDYS [SNF6]", "protein stability index": "3.35 ± 0.11"}
{"sequence": "VPQGKIVALTNAKDKER [SMC3]", "protein stability index": "3.02 ± 0.092"}
{"sequence": "VPQSEETRAELSQLCAV [RPO21]", "protein stability index": "3.09 ± 0.061"}
{"sequence": "VQLLSKSHNAHVRCGTA [RPN2]", "protein stability index": "1.72 ± 0.048"}
{"sequence": "VQQFAQLPVGFKNMGNT [UBP6]", "protein stability index": "1.92 ± 0.06"}
{"sequence": "VQVGPMKVFVTKHLMPQ [RPB7]", "protein stability index": "2.52 ± 0.042"}
{"sequence": "VQYKLLSISVPSDVNID [SNU114]", "protein stability index": "2.44 ± 0.069"}
{"sequence": "VREFQRRLAFLGIKVAE [BRR2]", "protein stability index": "1.17 ± 0.087"}
{"sequence": "VRIYSGLLKRGDTVRIL [SNU114]", "protein stability index": "3.02 ± 0.1"}
{"sequence": "VRMLASPMLYKVPDISS [BRR2]", "protein stability index": "2.28 ± 0.051"}
{"sequence": "VRNLQGIQEVVHNTNSF [NUT1]", "protein stability index": "3.17 ± 0.063"}
{"sequence": "VRNTAPNIRELGVKNLG [YCG1]", "protein stability index": "2.98 ± 0.13"}
{"sequence": "VRNYKPLINRLKHYNGY [SWI1]", "protein stability index": "2.54 ± 0.039"}
{"sequence": "VRRLEAQRNALNDKVRF [RPT6]", "protein stability index": "2.7 ± 0.045"}
{"sequence": "VRSAEYYAKKRAFTKKV [RPL16B]", "protein stability index": "3.1 ± 0.063"}
{"sequence": "VRSLPKEEQPKQIIVTR [PRP8]", "protein stability index": "1.98 ± 0.072"}
{"sequence": "VRWIETQDVFLKDFNTE [FAS2]", "protein stability index": "3.154 ± 0.021"}
{"sequence": "VSEDLLDERGHEKIEDE [RPN4]", "protein stability index": "3.45 ± 0.11"}
{"sequence": "VSFNGFKLPKKFPPPTP [BRR2]", "protein stability index": "2.93 ± 0.052"}
{"sequence": "VSGNNASDEPSRKKNRR [SSN3]", "protein stability index": "2.91 ± 0.096"}
{"sequence": "VSKKWAAAGVCEKWAAS [RPL14B]", "protein stability index": "2.51 ± 0.066"}
{"sequence": "VSKPSLLHETNDSFKGL [PRP8]", "protein stability index": "2.99 ± 0.097"}
{"sequence": "VSMKANKYQIKKAVKEL [RPL25]", "protein stability index": "2.97 ± 0.071"}
{"sequence": "VSNIEGILDEIMFNHAR [RGR1]", "protein stability index": "2.99 ± 0.031"}
{"sequence": "VSNNVLRRLEILVPDLY [ECM29]", "protein stability index": "1.65 ± 0.073"}
{"sequence": "VTFSPTGRLFQVEYALE [PRE5]", "protein stability index": "2.79 ± 0.062"}
{"sequence": "VTKETVHPRKSYKMNSS [PRP8]", "protein stability index": "2.9 ± 0.065"}
{"sequence": "VTLFQMAILLLYNDADV [CDC53]", "protein stability index": "1.96 ± 0.041"}
{"sequence": "VTNDLDTSAEKDQIQAG [SIR4]", "protein stability index": "3.21 ± 0.073"}
{"sequence": "VTRTQQWSMVAQRLQIS [SWI1]", "protein stability index": "2.06 ± 0.04"}
{"sequence": "VTSEKYPFDKLESWWLV [BRR2]", "protein stability index": "3.3 ± 0.087"}
{"sequence": "VTSMEAAREKKIRELEA [YIL149C/MLP2]", "protein stability index": "2.86 ± 0.063"}
{"sequence": "VTYTEHAKRKTVTSLDV [HHF1]", "protein stability index": "2.68 ± 0.095"}
{"sequence": "VVDANGCVNSLISGPRN [YMR129W/POM152]", "protein stability index": "2.66 ± 0.081"}
{"sequence": "VVDQLWSEISNELPDIE [RPN2]", "protein stability index": "2.69 ± 0.046"}
{"sequence": "VVEGVTFVVEQLIKQSI [SNU114]", "protein stability index": "2.85 ± 0.067"}
{"sequence": "VVEISNGNTSSKTVVTL [FAS1]", "protein stability index": "3.26 ± 0.06"}
{"sequence": "VVESVGAEVDEARINEL [RPP2B]", "protein stability index": "3.47 ± 0.15"}
{"sequence": "VVGTETRVNAQLESYEY [RRI1]", "protein stability index": "2.26 ± 0.1"}
{"sequence": "VVLFNRQPSLHRLSILS [RPO31]", "protein stability index": "1.63 ± 0.047"}
{"sequence": "VVLRLYLKDNITLLTRQ [GRR1]", "protein stability index": "1.98 ± 0.067"}
{"sequence": "VVLSFSGLNADSRILIE [PRE6]", "protein stability index": "3.3 ± 0.13"}
{"sequence": "VVNITHHELVPKHIRLS [RPB5]", "protein stability index": "3.01 ± 0.056"}
{"sequence": "VVRIKGINKIPPKPRKV [RPL7A]", "protein stability index": "2.44 ± 0.047"}
{"sequence": "VVSILEAGDSDILTTLA [RPL30]", "protein stability index": "3.03 ± 0.061"}
{"sequence": "VVVIDGKGHLVGRLASV [RPL16A]", "protein stability index": "1.97 ± 0.052"}
{"sequence": "VVVVLEEPSASIMVELK [SIR3]", "protein stability index": "2.86 ± 0.2"}
{"sequence": "VWFSHPRRYGKGSRQCR [RPS29A]", "protein stability index": "3.31 ± 0.11"}
{"sequence": "WASKYGQEYPRIIGLSA [BRR2]", "protein stability index": "1.93 ± 0.052"}
{"sequence": "WESLAKKQNLSSHQRVF [SWP82]", "protein stability index": "2.91 ± 0.053"}
{"sequence": "WIKNEQERQRQIQKNGP [PRP8]", "protein stability index": "2.84 ± 0.094"}
{"sequence": "WIRLRTNNTIRYNAKRR [RPL39]", "protein stability index": "2.72 ± 0.066"}
{"sequence": "WKEVMFDPSKDVLINEL [CDC53]", "protein stability index": "1.91 ± 0.073"}
{"sequence": "WMLSICVEWRLPEIAKE [YJR042W/NUP85]", "protein stability index": "1.67 ± 0.061"}
{"sequence": "WNRADNHFKDTYGFSIL [FAS1]", "protein stability index": "3.27 ± 0.092"}
{"sequence": "WQIEEAGNSQITSGGFL [SRB5]", "protein stability index": "3.23 ± 0.14"}
{"sequence": "WQYYYYTLTEEGVEYLR [RPS10A]", "protein stability index": "3.21 ± 0.1"}
{"sequence": "WRILKEDYAIVTKGGTV [PRP28]", "protein stability index": "3.41 ± 0.17"}
{"sequence": "WSEITESMSYLPDPILK [MCD1]", "protein stability index": "2.64 ± 0.1"}
{"sequence": "WSKESNYDCKVISIVGG [PRP28]", "protein stability index": "2.74 ± 0.094"}
{"sequence": "WSKTIKARTNLHQHVVL [RPC34]", "protein stability index": "2.34 ± 0.064"}
{"sequence": "WSTTGDNGELDLSGFNI [MED2]", "protein stability index": "2.93 ± 0.097"}
{"sequence": "WTEKKGKNVINRERFIS [SMD2]", "protein stability index": "3.05 ± 0.087"}
{"sequence": "WTMRIEGRLLDNVQAND [SNF12]", "protein stability index": "2.93 ± 0.047"}
{"sequence": "WYEASTWIQQFKSTMLQ [ARP7]", "protein stability index": "2.14 ± 0.056"}
{"sequence": "YARFKNDFFPGEVVYLR [ITC1]", "protein stability index": "3.22 ± 0.091"}
{"sequence": "YASFNDTFVHVTDLSGK [RPS14B]", "protein stability index": "2.73 ± 0.094"}
{"sequence": "YATKDGVAHLLNRFNFQ [QCR2]", "protein stability index": "2.6 ± 0.057"}
{"sequence": "YAVKAVENGTTSIGIKC [PRE10]", "protein stability index": "2.77 ± 0.19"}
{"sequence": "YDNEKTAELIKELKEKE [PUP2]", "protein stability index": "3.31 ± 0.064"}
{"sequence": "YDPIKRIDAFNALEHKY [SSN3]", "protein stability index": "2.77 ± 0.043"}
{"sequence": "YDPSIGIFGMDFYVVMN [RPL11A]", "protein stability index": "2.55 ± 0.037"}
{"sequence": "YDSRSGTHNMYKEIRDV [RPL20A]", "protein stability index": "3.18 ± 0.056"}
{"sequence": "YEKELMGDELTRSHFNA [RPN6]", "protein stability index": "3.48 ± 0.1"}
{"sequence": "YENSISKDLRSVWKPIA [IRR1]", "protein stability index": "2.54 ± 0.05"}
{"sequence": "YEYGAVSVLLISKDCSA [BRR2]", "protein stability index": "1.81 ± 0.041"}
{"sequence": "YFFQLQIRSADEPMTTF [RPC11]", "protein stability index": "3.26 ± 0.071"}
{"sequence": "YGDGNGKGDNDNGLGPL [SWI3]", "protein stability index": "3 ± 0.1"}
{"sequence": "YGLGLIYAGFGRDTTDY [RPN2]", "protein stability index": "3.28 ± 0.088"}
{"sequence": "YGMSITETFEKPQRTNT [RPB2]", "protein stability index": "3.12 ± 0.11"}
{"sequence": "YGRKSFRNNKNDNYSSD [REC8]", "protein stability index": "3.14 ± 0.059"}
{"sequence": "YGTATADDADIEMKDVS [MED1]", "protein stability index": "3.15 ± 0.071"}
{"sequence": "YIEDFLLVIGGNQRKIL [YJR042W/NUP85]", "protein stability index": "1.71 ± 0.042"}
{"sequence": "YIEEKHPTIYESLPQYV [POP4]", "protein stability index": "2.06 ± 0.045"}
{"sequence": "YILEAEAAAKEKDELDN [QCR7]", "protein stability index": "3.18 ± 0.079"}
{"sequence": "YIQRRLVKALEDIMVHY [RPO21]", "protein stability index": "2.05 ± 0.055"}
{"sequence": "YIRKLISSGLLYLQDSN [SRB8]", "protein stability index": "1.11 ± 0.061"}
{"sequence": "YITAKNNVVINFKDMSH [PRP8]", "protein stability index": "2.14 ± 0.043"}
{"sequence": "YKAKIKELENNLERLRS [YIL149C/MLP2]", "protein stability index": "3.11 ± 0.054"}
